# Data taken from the RNAGym collection of RNA variant scans (doi:10.7554/elife.80360).
# B1: HDV Ribozyme (parent)
# chain: GGCCGGCAUGGUCCCAGCCUCCUCGCUGGCGCCGGCUGGGCAACAUUCCGAGGGGACCGUCCCCUCGGUAAUGGCGAAUGGGACCCA
# Variants of: B1
# Experiment: self-cleavage, relative activity (ratio to wild type); higher = more cleavage; co-transcriptional
row,Variant,self-cleavage
1,G50C G81A,0.443
2,A71G C84G,0.465
3,C3A A16G,0.401
4,A42U G74U,0.277
5,G54A C63U,1.04
6,C14U A56U,1.22
7,C3U G80U,0.114
8,C13G U72C,0.0723
9,C4U G10C,0.63
10,C15G C18U,0.0852
11,G2C C58A,0
12,G1U C3A,0.654
13,C7G,0.315
14,C4A U60A,0.284
15,C44A A83C,0.269
16,C24A G29A,0.106
17,G34U C48A,0.251
18,G28U A56G,0
19,A42G G73A,0.192
20,C13U A71G,0.429
21,C22G G39C,0.0554
22,U12G G34U,0.266
23,C75A G81A,0.151
24,C44U G73C,0.47

row,Variant,self-cleavage
1,G68A C75U,0.0615
2,C15U G82C,0.166
3,C63A G81C,0.188
4,C57G G74U,0.388
5,C44U U69G,0.957
6,C22A A45C,0.115
7,G2C G38C,0.0475
8,G5C C62G,0.145
9,C14A A16C,0.755
10,G17C U69G,0.317
11,C44G C85U,0.892
12,U20A C86G,0.166
13,U37C A71G,0.751
14,C32U G53C,0.846
15,U47A A56C,0.782
16,G5C U23A,0
17,G5C U23C,0.208
18,G68C A71U,0.68
19,A16G G74U,0.494
20,G28C A77U,0.107
21,C19G A70U,0.102
22,A71U C85U,1.17
23,G34C C63A,0.166
24,G2A U46A,0.0601

row,Variant,self-cleavage
1,G54U A87G,0.933
2,G25A G35C,0.0627
3,C48G C75U,0.285
4,A16C C62U,0.804
5,C33G U69A,0.201
6,A8U C64A,0.538
7,G1C C24A,0.142
8,U12A C18A,0.0604
9,G10U G81A,0.026
10,C7G C62U,0.302
11,G53U C75G,0.214
12,G67U U69C,0.906
13,G29U G50C,0.153
14,C3U C4G,0
15,C63U U65A,0.849
16,C64U U72G,0.712
17,C32U C85G,0.831
18,G34U U79C,0.201
19,C21G A51U,0.0354
20,U23G C49U,0.867
21,G6U U46A,0.0755
22,G39A A83U,0.185
23,C61U A71U,1.02
24,C13U G39A,0.332

row,Variant,self-cleavage
1,G28C U46C,0.0723
2,C30G G34U,0.0449
3,G5A A42U,0.111
4,U23C A56G,0.87
5,G31U A51U,0.525
6,U20A U72G,0
7,C32U A87G,0.787
8,U69G A87C,0.822
9,G10C C44A,0.615
10,C26G A78G,0.633
11,G54U A71C,0.654
12,U27A G29U,0
13,C7G C63A,0.172
14,C3G C85A,0.858
15,G52A G67A,0.923
16,G2U G54A,0.0279
17,G68A G76A,1
18,U27C G40U,0.7
19,C32A C58G,0
20,G52A C86U,0.816
21,G34U A43U,0.104
22,G55C C86A,1.03
23,C3G G40A,0.575
24,G2C C85G,0.0563

row,Variant,self-cleavage
1,U9C C64U,0.923
2,C44A A77C,0.128
3,G54A G73C,0.527
4,C22G U69G,0.108
5,C13G G73C,0.0396
6,G53A U79C,0.376
7,G2U G67U,0.0563
8,C41A A87C,1
9,C13G A70C,0
10,C13A G25A,0.0277
11,A8C G40A,0.511
12,C32G C33A,0.0615
13,A16G U79C,1.08
14,C13G C86A,0.0811
15,C44U U72G,0.665
16,G25U G38U,0.134
17,C49U G76A,1.08
18,G11A A51U,0.468
19,C26A G35A,0.633
20,C49U C86A,0.793
21,C13A C41A,0.219
22,G10A G38A,0.0607
23,C33A C61U,0.265
24,G10A A87U,0.779

row,Variant,self-cleavage
1,U23C A43U,0.298
2,C7U G29U,0.157
3,G53U C66U,1.15
4,U9A U79G,0.529
5,A42U G59U,0.595
6,C24G G67C,0.026
7,G34U C84U,0.261
8,C62U A71G,0.997
9,U65C A77C,0.465
10,C58A C84G,0.764
11,U69G A77C,0.369
12,G35A U37A,0.0898
13,G40A C84U,0.377
14,C4U G73U,0.138
15,C36U G74U,0.191
16,C18A C30U,0
17,U12G C19G,0
18,C4G C66U,0.445
19,G28U G53C,0.0692
20,G31C G38C,0.135
21,A45G U60C,0.831
22,C19U C26G,0.356
23,G6U G25A,0.169
24,G40U A43C,0.374

row,Variant,self-cleavage
1,U47A C64A,1.08
2,U47A C64G,0.978
3,G28C G82A,0.0852
4,C4A A83U,0.0959
5,A77G A83C,0.208
6,G28U C30A,0.0923
7,A8G G11A,0.196
8,C4G A71G,0.277
9,G10U G80C,0.0936
10,G34C C49G,0.264
11,C21U G28A,0.0791
12,U9C C30G,0.0462
13,G2U A83G,0.0815
14,G1U C62G,0.391
15,C14G G25U,0.0504
16,G1C C75U,0.227
17,C4G G74U,0.111
18,G38C G68C,0.193
19,G38C G68A,0.172
20,U20G A87C,0.282
21,G5C G82U,0.0594
22,G53U G73U,0.472
23,U9C G68A,1.17
